Data taken from PMC8023661, “Engineering of Ancestors as a Tool to Elucidate Structure, Mechanism, and Specificity of Extant Terpene Cyclase” (Journal of the American Chemical Society, 2021).

Columns and labels:
[1] = molecular target: spiroviolene synthase (SvS) from Streptomyces violens, extant enzyme (Streptomyces violens); assay: SEC; size exclusion chromatography of the enzyme in solution; conditions in the Supporting Methods (not shown)
SvS-A2 [2] = molecular target: T1, SvS-A2 (synthetic construct, UniProt Z9I7L2B0V8, A89H/W156Y); assay: Malachite Green assay; GC-FID competition experiment; format: biochemical; conditions: 60 µM each FPP and GGPP, ca. 400 nM enzyme, 30 °C, 3 h; library variants carry Ala89His
T1 construct: homodimer; first resolved N-terminal residue Asp09
T1 sequence (Z9I7L2B0V8 1-361 A89H/W156Y): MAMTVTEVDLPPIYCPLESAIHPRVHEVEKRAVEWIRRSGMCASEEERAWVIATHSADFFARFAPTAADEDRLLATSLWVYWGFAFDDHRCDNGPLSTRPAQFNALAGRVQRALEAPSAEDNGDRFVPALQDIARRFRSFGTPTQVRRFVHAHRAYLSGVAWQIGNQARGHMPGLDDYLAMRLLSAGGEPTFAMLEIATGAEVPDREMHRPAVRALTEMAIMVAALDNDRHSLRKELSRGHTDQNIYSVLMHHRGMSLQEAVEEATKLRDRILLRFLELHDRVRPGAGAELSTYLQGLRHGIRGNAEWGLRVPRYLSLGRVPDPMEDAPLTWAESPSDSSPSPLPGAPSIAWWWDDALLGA

SvS-WT = molecular target: T2, SvS-WT (Streptomyces violens, UniProt P0DPK6); assay: in vitro product formation, GC; format: biochemical; conditions: 2 µM enzyme, 3 h
T2 construct: extant wild-type enzyme, expressed in E. coli BL21(DE3), purified and desalted; dimeric in solution
T2 sequence (P0DPK6 1-359): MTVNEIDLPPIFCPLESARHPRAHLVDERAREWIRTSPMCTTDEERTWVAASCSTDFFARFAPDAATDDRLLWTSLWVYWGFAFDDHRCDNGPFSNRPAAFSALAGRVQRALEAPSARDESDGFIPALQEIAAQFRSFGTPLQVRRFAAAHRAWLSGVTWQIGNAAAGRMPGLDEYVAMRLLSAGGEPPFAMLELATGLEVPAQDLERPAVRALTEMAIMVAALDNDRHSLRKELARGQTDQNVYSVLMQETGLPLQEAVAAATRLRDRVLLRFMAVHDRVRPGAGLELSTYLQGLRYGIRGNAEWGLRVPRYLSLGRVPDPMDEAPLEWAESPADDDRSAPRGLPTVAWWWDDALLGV

SvS-A2 [3] = molecular target: T3, SvS-A2 (synthetic construct, UniProt Z9I7L2B0V8, A89H/A224I); assay: Malachite Green assay; GC-FID competition experiment; format: biochemical; conditions: 60 µM each FPP and GGPP, ca. 400 nM enzyme, 30 °C, 3 h; library variants carry Ala89His
T3 construct: homodimer; first resolved N-terminal residue Asp09
T3 sequence (Z9I7L2B0V8 1-361 A89H/A224I): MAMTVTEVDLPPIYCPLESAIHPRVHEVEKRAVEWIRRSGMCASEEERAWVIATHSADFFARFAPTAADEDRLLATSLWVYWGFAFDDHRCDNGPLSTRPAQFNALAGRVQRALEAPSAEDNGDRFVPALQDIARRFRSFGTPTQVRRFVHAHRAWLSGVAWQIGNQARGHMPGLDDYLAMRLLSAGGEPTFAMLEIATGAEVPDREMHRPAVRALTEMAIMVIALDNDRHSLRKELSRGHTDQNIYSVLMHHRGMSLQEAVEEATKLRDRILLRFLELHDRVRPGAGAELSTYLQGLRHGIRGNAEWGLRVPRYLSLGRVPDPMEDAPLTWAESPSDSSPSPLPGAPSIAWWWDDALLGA

[4] = substrate: CC(C)=CCC/C(C)=C/CC/C(C)=C/CC/C(C)=C/COP(=O)(O)OP(=O)(O)O; assay: initial rates of spiroviolene formation, cooperative fit; format: biochemical, synthetic construct; conditions: 0.5 µM enzyme, Hill coefficient fit
From the text: initial rates of spiroviolene formation, cooperative fit on SvS-A2 | The KM value for GGPP reported herein is twice as high as previously reported

[5] = substrate: CC(C)=CCC/C(C)=C/CC/C(C)=C/CO[P@@](=O)(O)OP(=O)(O)O; assay: initial rates of hedycaryol formation, Michaelis-Menten fit; format: biochemical, synthetic construct; conditions: 0.5 µM enzyme

**Q.** “spiroviolene synthase (SvS) from Streptomyces violens, extant enzyme” was tested. Which stoichiometry N [1] did it give?
**A.** 2

**Q.** Which results are given for CC(C)=CCC/C(C)=C/CC/C(C)=C/CC/C(C)=C/COP(=O)(O)OP(=O)(O)O [GGPP]?
**A.** Malachite Green assay; GC-FID competition experiment (SvS-A2 [2]): A Trp156Tyr exchange (Group III) results in a highly active and diterpene specific SvS-A2 variant; in vitro product formation, GC (SvS-WT; 60 µM GGPP, 30 °C): both enzymes accepted FPP and GGPP as substrates

**Q.** Which results are given for CC(C)=CCC/C(C)=C/CC/C(C)=C/COP(=O)(O)OP(=O)(O)O [FPP]?
**A.** Malachite Green assay; GC-FID competition experiment (SvS-A2 [3]): Ala224Ile (group IV) reverses substrate preference of the reconstructed ancestral enzyme; in vitro product formation, GC (SvS-WT; 60 µM FPP, 50 mM Tris-HCl pH 7.4, 30 °C): the extant enzyme in fact showed higher activity with FPP than GGPP

B1: SvS-A2 (synthetic construct) (protein)
chain: MAMTVTEVDLPPIYCPLESAIHPRVHEVEKRAVEWIRRSGMCASEEERAWVIATHSADFFARFAPTAADEDRLLATSLWVYWGFAFDDARCDNGPLSTRPAQFNALAGRVQRALEAPSAEDNGDRFVPALQDIARRFRSFGTPTQVRRFVHAHRAWLSGVAWQIGNQARGHMPGLDDYLAMRLLSAGGEPTFAMLEIATGAEVPDREMHRPAVRALTEMAIMVAALDNDRHSLRKELSRGHTDQNIYSVLMHHRGMSLQEAVEEATKLRDRILLRFLELHDRVRPGAGAELSTYLQGLRHGIRGNAEWGLRVPRYLSLGRVPDPMEDAPLTWAESPSDSSPSPLPGAPSIAWWWDDALLGA
notes: homodimer; first resolved N-terminal residue Asp09
**Q.** With B1 as the molecule, how does the Km [4] read?
**A.** 49 ± 6 µM

**Q.** And the kcat [4]?
**A.** 5.8 ± 0.6 × 10^-3 s^-1

**Q.** What about the Km [5] of the same molecule?
**A.** 28 ± 11 µM

**Q.** And the kcat [5]?
**A.** 0.3 ± 0.04 × 10^-3 s^-1
